No end group written: not given here.
B1: QBP1 phage clone (Glutamine Binding Peptide 1 displayed on M13 phage) (peptide)
chain: SNWKWWPGIFD-pIII
notes: Assayed as purified M13 phage displaying the 11-mer at the amino terminus of pIII; not shown: pIII (Piii) capsid protein of phage M13; the 11-mer is added to its amino terminus; assayed as whole phage
B2: QBP2 phage clone (Glutamine Binding Peptide 2 displayed on M13 phage) (peptide)
chain: HWWRSWYSDSV-pIII
notes: as for B1
B3: QBP3 phage clone (Glutamine Binding Peptide 3 displayed on M13 phage) (peptide)
chain: HEWHWWHQEAA-pIII
notes: as for B1
B4: QBP4 phage clone (Glutamine Binding Peptide 4 displayed on M13 phage) (peptide)
chain: WGLEHFAGNKR-pIII
notes: as for B1
B5: QBP5 phage clone (Glutamine Binding Peptide 5 displayed on M13 phage) (peptide)
chain: WWRWNWATPVD-pIII
notes: as for B1
B6: QBP6 phage clone (Glutamine Binding Peptide 6 displayed on M13 phage) (peptide)
chain: WHNYFHWWQDT-pIII
notes: as for B1

What was measured:
[1] = molecular target: thioredoxin-polyglutamine fusion protein with 62 glutamines (Homo sapiens (Human), UniProt Q156A1 2-63); assay: cell-based or functional assay
thioredoxin-polyglutamine fusion protein with 62 glutamines, sequence (Q156A1 2-63): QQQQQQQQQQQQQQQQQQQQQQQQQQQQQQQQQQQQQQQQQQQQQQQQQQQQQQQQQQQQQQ

[2] = molecular target: thioredoxin-polyglutamine fusion protein with 81 glutamines (Dictyostelium discoideum (Social amoeba), UniProt Q54DK4 734-1290); assay: cell-based or functional assay
thioredoxin-polyglutamine fusion protein with 81 glutamines, sequence (Q54DK4 other isoform, or with tags, fused parts or gaps): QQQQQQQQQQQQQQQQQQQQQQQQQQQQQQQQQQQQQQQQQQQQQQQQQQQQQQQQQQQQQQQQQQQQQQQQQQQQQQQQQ

[3] = molecular target: T1, bovine serum albumin (bovine, UniProt P02769 25-607); assay: phage ELISA
T1 construct: also called BSA
T1 sequence (P02769 25-607 limits assumed): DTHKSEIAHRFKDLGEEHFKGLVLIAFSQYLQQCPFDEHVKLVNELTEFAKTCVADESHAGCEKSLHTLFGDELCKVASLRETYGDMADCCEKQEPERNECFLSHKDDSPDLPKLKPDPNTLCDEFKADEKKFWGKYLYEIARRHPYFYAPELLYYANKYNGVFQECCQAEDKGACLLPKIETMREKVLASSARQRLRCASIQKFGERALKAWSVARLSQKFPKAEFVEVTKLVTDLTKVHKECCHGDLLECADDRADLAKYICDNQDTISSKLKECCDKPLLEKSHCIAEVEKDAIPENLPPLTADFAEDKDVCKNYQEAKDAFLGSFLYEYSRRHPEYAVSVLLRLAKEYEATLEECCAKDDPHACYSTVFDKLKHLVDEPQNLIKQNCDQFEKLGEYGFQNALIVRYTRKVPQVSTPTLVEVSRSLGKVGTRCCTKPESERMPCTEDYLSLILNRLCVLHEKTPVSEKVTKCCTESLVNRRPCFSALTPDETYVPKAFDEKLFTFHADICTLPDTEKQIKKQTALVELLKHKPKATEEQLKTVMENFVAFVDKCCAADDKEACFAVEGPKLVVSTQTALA

[4] = molecular target: T2, polyglutamine-glutathione-S-transferase fusion protein with 62 glutamines (UniProt Q156A1 2-63); assay: phage ELISA on immobilized Q62-GST and Q19-GST, anti-M13 antibody detection; reference Q19-GST
T2 construct: Vector construction is cited to Onodera et al. 1996; also called Q62-GST; Q62; not shown: glutathione-S-transferase (GST)
T2 sequence (Q156A1 2-63): as the sequence (Q156A1 2-63) above

Binder	inhibition of thio-Q62 aggregation in vitro (turbidity at 405 nm) [1]	inhibition of thio-Q81 aggregation in vitro (turbidity at 405 nm) [2]	binding result [3]	RATIO Q62/Q19 BINDING ELISA [4]
Ac-SNWKWWPGIFD [QBP1 synthetic 11-mer peptide (glutamine binding peptide 1)]	3 molar ratio thio-Q62:QBP1 (3:1) for complete inhibition	10 fold molar excess of QBP1 over thio-Q81	–	–
B1	–	–	no binding	1.66 ratio (phage bound to Q62-GST divided by phage bound to Q19-GST)
B2	–	–	no binding	1.31 ratio (phage bound to Q62-GST divided by phage bound to Q19-GST)
B3	–	–	no binding	1.3 ratio (phage bound to Q62-GST divided by phage bound to Q19-GST)
B4	–	–	no binding	1.27 ratio (phage bound to Q62-GST divided by phage bound to Q19-GST)
B5	–	–	no binding	1.25 ratio (phage bound to Q62-GST divided by phage bound to Q19-GST)
B6	–	–	no binding	1.23 ratio (phage bound to Q62-GST divided by phage bound to Q19-GST)
